# Data: patent US8440629B2, “Cyclic receptor-associated protein (RAP) peptides” (Raptor Pharmaceuticals Inc., priority 2007, dated 2013)
# Substitutions are numbered along the chain they refer to. Names and notes keep the numbering of the source.
# T1: rhLRP1 cluster II (Homo sapiens, UniProt Q07954)
# T1 construct: rhLRP1 cluster II (aa 786-1165, C-terminal Fc, 1 μg); purchased R&D Systems; host or cells: NS0
# T1 sequence (Q07954 786-1165): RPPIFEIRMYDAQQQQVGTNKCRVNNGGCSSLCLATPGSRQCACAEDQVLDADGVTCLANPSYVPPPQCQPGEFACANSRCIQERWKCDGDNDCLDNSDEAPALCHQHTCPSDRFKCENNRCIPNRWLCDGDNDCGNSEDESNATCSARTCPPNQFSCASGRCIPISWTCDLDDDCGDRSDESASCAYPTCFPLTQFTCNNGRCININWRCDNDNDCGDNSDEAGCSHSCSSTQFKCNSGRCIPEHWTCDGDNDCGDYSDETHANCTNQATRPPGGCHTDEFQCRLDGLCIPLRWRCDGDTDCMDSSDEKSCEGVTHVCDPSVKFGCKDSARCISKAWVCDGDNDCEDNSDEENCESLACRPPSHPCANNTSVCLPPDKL
# B1: MegaRAP1 d3 T213S: MegaRAP1 d3 revertant T213S (protein)
# chain: LDRLRRVSHQGYSTEAKFEEPRVIDLWDLAQSANLTDKELEAFREELKYFKAKIEAHNHYQKQLEIAHEELRHAESVGDGERVSRSREKHALLEGRTKELGYTVKKHLQDLSGRISRAR
# B2: MegaRAP1 d3 Y249H: MegaRAP1 d3 revertant Y249H (protein)
# chain: B1 chain with S13T, Y49H
# B3: MegaRAP1 d3 K217E: MegaRAP1 d3 revertant K217E (protein)
# chain: B1 chain with S13T, K17E
# B4: MegaRAP1 d3 A256K: MegaRAP1 d3 revertant A256K (protein)
# chain: B1 chain with S13T, A56K
# B5: MegaRAP1 d3 K251E: MegaRAP1 d3 revertant K251E (protein)
# chain: B1 chain with S13T, K51E
# B6: RAP d3 K270E: RAP d3 forward mutant K270E (protein)
# chain: B1 chain with K17E, Y49H, K51E, A56K
# B7: mRAPcko: mRAPc with the mutations K256A and K270E (peptide)
# peptide: GGSGGCGFREELKHFEAKIEAHNHYQKQLEIAHEELRHAESVGDGERVSRSREKHALLEGRTKELGYTVKKHLQDLSGGC
# modifications: N-terminal biotin; intramolecular disulfide bond between C241 and C315 (otherwise identical to mRAPc)
# notes: mRAPc with the mutations K256A and K270E
# B8: mRAP: linearized control of mRAPc, both cysteines substituted with serines (SEQ ID NO: 107) (peptide)
# chain: SGFREELKHFEAKIEKHNHYQKQLEIAHEKLRHAESVGDGERVSRSREKHALLEGRTKELGYTVKKHLQDLSGGS
# B9: Heptide: cyclic RAP peptide, amino acids 246 to 313, E246C, L247G, G280A, L311A, S312C (SEQ ID NO: 103) (protein)
# chain: CGKHFEAKIEKHNHYQKQLEIAHEKLRHAESVGDAERVSRSREKHALLEGRTKELGYTVKKHLQDACG
# modifications: chains of the parent or of the whole protein
# B10: mRAp-8c: cyclic RAP peptide, amino acids 246 to 312, E246C, L247G, L311G, S312C (SEQ ID NO: 100) (protein)
# chain: CGKHFEAKIEKHNHYQKQLEIAHEKLRHAESVGDGERVSRSREKHALLEGRTKELGYTVKKHLQDGC
# modifications: chains of the parent or of the whole protein
# Molecular target: T2, LRP2 CR89 (Homo sapiens, UniProt P98164)
# T2 construct: two CR pairs from LRP2 (CR89, CR3435); made in house; host or cells: E. coli BL21(DE3) CodonPlus-RIPL, pET30(+)a
# T2 sequence (P98164 1022-1105 limits assumed): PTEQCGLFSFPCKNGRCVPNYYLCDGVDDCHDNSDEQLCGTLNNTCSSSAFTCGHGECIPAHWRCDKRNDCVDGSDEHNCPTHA
# Experiment: Solid phase binding assay
# Conditions: solid-phase assay
# Description: (§1) All expression constructs were sequenced to verify insert sequences and the junctions with the expression vector. Each plasmid was then used to transform BL21(DE3) CodonPlus-RIPL™ cells (Stratagene). Expression of the CR proteins was induced in logarithmic growth-phase cells grown in LB supplemented with 34 μg/mL chloramphenicol, 12.5 μg/mL tetracycline and 15 μg/mL kanamycin by addition of 2 mM IPTG, followed by reduction in incubator temperature to 32° C. and incubation for 4 hours with agitation at […]. Cells were pelleted and resuspended, at 3.5% of the initial culture volume in 10 mM Tris-HCl pH 8, 100 mM NaH2PO4, 8M Urea. Resuspended cells were then frozen in liquid nitrogen, rapidly thawed to 37° C. and sonicated for 10 seconds at an amplitude setting of 60 using a Cole-Parmer CP-130 ultrasonic processor connected to a 3 mm probe. This procedure was repeated three times to effect complete lysis of the cells. Lysates were clarified by spinning twice at 10,000×g in a Sorvall RC-5 centrifuge for 20 minutes at 15° C. Ni-NTA columns (Qiagen Superflow™, 1.5 mL packed bed) were used to purify the CR proteins. Briefly, the resin was equilibrated with two column volumes of lysis buffer. The clarified lysate was then supplemented to 20 mM with imidazole and incubated with the equilibrated Ni-NTA resin overnight at 4° C. The flow-through was discarded. Columns were washed once with one column volume of lysis buffer and then three times with one column volume of TBS pH 8 supplemented with 20 mM imidazole. CR-loaded beads were then removed from the column and CR proteins eluted by incubating at room temperature for 30 minutes with one column volume of the same buffer containing 200 mM imidazole. This step was repeated once and the eluates pooled. Eluted CR protein solutions were then supplemented to 2 M urea, 10 mM CaCl2 and 5 mM DTT. Purified, denatured CR protein solutions were transferred to 3,500 MWCO Slide-A-Lyzer™ (Pierce) cassettes and sequentially dialyzed against a 200-fold excess of 50 mM Tris-HCl pH 8.5, 10 mM CaCl2, 1 mM reduced glutathione, 0.5 mM oxidized glutathione at room temperature overnight and then against TBS supplemented with 5 mM CaCl2 at 4° C. overnight. Protein concentrations were determined by Bradford assay and purity confirmed by SDS-PAGE with Coomassie Brilliant Blue staining.
# (§2) Purified, refolded CR protein (1 μg) was bound to Nunc Maxisorp™ 96-well plates in TBS pH 8 supplemented with 5 mM CaCl2 (TBSC) overnight at 4° C. Wells were washed with TBSC and then blocked with TBSC containing 2% bovine serum albumin (BSA). RAP ligands were then incubated with the immobilized receptor at a range of concentrations for 2 hours in the above blocking buffer supplemented with 0.05% Tween-20 at room temperature. Control wells contained no added ligand. As an additional control, to determine whether the absence of calcium affected binding, 10 mM EGTA was included in the incubation medium for some samples. Wells were washed with TBSTC and bound ligands detected with polyclonal anti-RAP (BP41/42, 1:1,000, BioMarin). Excess primary antibody was removed and wells washed before incubation with the secondary antibody, HRP-conjugated goat anti rabbit IgG (Bio-Rad). After washing, TMB substrate solutions (Bio-Rad) were added to detect HRP. Color development was stopped with 1N HCl. Absorption at 450 nm was measured with a microplate spectrophotometer (Molecular Devices). Data were plotted and Kd values derived by non-linear regression with the assumption of single-site binding (GraphPad Prism).
row,Molecule,binding to LRP2 CR89 (in words)
1,B1,slightly improved affinities
2,B2,failed to bind
3,B3,slightly improved affinities
4,B4,failed to bind
5,B5,failed to bind

# Molecular target: T3, LRP1 CR3-5 (Homo sapiens, UniProt Q07954)
# T3 construct: made in house; host or cells: E. coli BL21(DE3) CodonPlus-RIPL, pET30(+)a
# Experiment: Solid phase binding assay
# Conditions: solid-phase assay
# Description: as §1, §2
# From the large number of CR pairs with unique combinations of amino acids at A, C, A′ and C′ within the calcium-binding loop of each CR, CR pairs or triplets were selected to test their binding to RAP d3 (FIG. 2). An additional pair derived from the FDC-8D6 protein was tested, designated 8D6 CR12, having the sequence ([…]) (SEQ ID NO: 91). […]
row,Molecule,binding to LRP1 CR3-5 (in words)
1,B1,unable to detectably bind
2,B2,failed to bind
3,B6,failed to measurably bind
4,B3,unable to detectably bind
5,B4,failed to bind
6,B5,failed to bind

# Molecular target: T1, rhLRP1 cluster II
# Experiment: Solid phase binding assay of RAP peptides
# Conditions: not given
# Description: Solid phase binding assays were carried out as follows. Recombinant murine VLDLR ectodomain (aa 1-798, C-terminal hexahistidine, 1 μg) or rhLRP1 cluster II (aa 786-1165, C-terminal Fc, 1 μg) were bound to Nunc Maxisorp™ 96-well plates in TBS pH 8 supplemented with 5 mM CaCl2 (TBSC) overnight at 4° C. Wells were washed with TBSC and then blocked with TBSC containing 2% BSA. Peptides were then incubated with the immobilized receptor at a range of concentrations for 2 hours in the above blocking buffer supplemented with 0.05% Tween-20 at room temperature. Identical binding reactions were done in the presence of 50 mM EDTA to provide a measure of non-specific binding. Control wells contained no added peptide. Additional controls established absence of cross-reactivity between antibodies and receptors. Wells were washed with TBSTC and bound peptides detected with streptavidin-HRP (Pierce) or polyclonal anti-RAP (1:1,000, Raptor Pharmaceutical). Binding of the anti-RAP polyclonal antibody to test peptides was qualitatively confirmed by Western blotting (data not shown). Excess streptavidin-HRP or primary antibody was removed and wells washed before incubation with the secondary antibody, when necessary, HRP-conjugated goat anti rabbit IgG (Bio-Rad). Color was developed using TMB reagents (BioRad). Absorption at 450 nm was measured with a microplate spectrophotometer (Molecular Devices). Absorption obtained in the presence of EDTA was subtracted from absorption obtained in the presence of calcium prior to analysis. Data were plotted and Kd values derived by non-linear regression with the assumption of single-site binding (GraphPad Prism).
# The binding affinity of the peptides for LRP1 and VLDLR, another receptor in the LDLR family, was measured as follows. NS0-expressed and purified hrLRP1 or mVLDLR (R&D Systems) were use to coat wells in 96-well plates. Various dilutions of the test peptides were incubated with the immobilized receptors in the presence and absence of 50 mM EDTA in triplicate. Bound peptides were detected with streptavidin-HRP after extensive washing. Binding values measured in the presence of EDTA were subtracted from values measured in the absence of EDTA in order to determine calcium-dependent binding levels. Corrected values were plotted and fitted by non-linear regression with the assumption of a single-binding site using GraphPad Prism.
row,Molecule,affinity (in words)
1,B7,no measurable affinity
2,B8,no measurable affinity

# Same assay, conditions: calcium-dependent binding, EDTA-subtracted; read-out: Kd / binding affinity
row,Molecule,Kd [nM]
1,B9,~3.5
2,B10,4 to 6
